The record followed here is patent US20220380446A1 (ABL BIO, published 2022).

Assay [1] addresses T1, human α-synuclein pre-formed fibrils (Human Alpha Synuclein Pre-formed Fibrils Type II, StressMarq SPR-317) (human, UniProt P37840 1-140). Description: sandwich ELISA, antibody coated, α-syn PFF added, 7B7-biotin detection. The method, then: (§1) Specifically, the antibodies were diluted with PBS by six-fold serial dilution from 400 nM to 0.009 nM. The diluted antibodies were added to a 96-well plate at 100 μL/well for coating. The plate was sealed and incubated at 4° C. for 16 hours. After washing with phosphate-buffered saline with Tween® (PBS-T; 0.05% Tween® 20) five times, the plate was blocked with 5% BSA in PBS 200 μL/well at 37° C. for 2 hours. After washing with PBS-T five times, α-syn PFF (2 μg/mL, 100 μL/well in 2% BSA in PBS) was added to the plate and incubated at 37° C. for 2 hours. After washing with PBS-T five times, 7B7-biotin antibody (anti-α-syn antibody; 1 μg/mL/100 μL/well, in 2% BSA in PBS) was added and incubated at 37° C. for 2 hours. After washing with PBS-T five times, the plate was incubated with horseradish peroxidase (HRP)-bound streptavidin in PBS with 2% BSA (1:5000, 1 mg/mL stock, 20 ng/well, 100 μL/well) at 37° C. for 1 hour. After washing with PBS-T five times, 3,3′,5,5′-tetramethylbenzidine (TMB) (100 μL/well) was added and incubated at room temperature for 5 minutes. The reaction was stopped by the addition of 0.5 N H₂SO₄ (50 μL/well). Optical absorbance at 450 nm was measured by using a plate reader, with absorbance at 650 nm subtracted from the reading.
(In general: ELISA stands for enzyme-linked immunosorbent assay.)

The target of assay [2] is T1, human α-synuclein pre-formed fibrils …. Described as above. The method, then:
as §1
The source holds these as a separate data set.

For assay [3] the target is unchanged. Description: SPR Biacore T200, antibody captured on Protein A chip, α-syn PFF analyte, 1:1 model. The method, then: (§2) The equipment used was Biacore® (GE Healthcare, Model T200). Protein A (GE Healthcare, Cat: 29-1275-56) was used as a chip, 10 mM glycine-HCl pH 1.5 (GE Healthcare, Cat: BR-1003-54) was used as a regeneration buffer, and HBS-EP was used as a running buffer and an analyte dilution and sample dilution buffer. […] A capture phase was carried out at a contact time of 60 seconds and a flow rate of 30 μL/min was used for a stabilization period of 60 seconds, with the target resonance units (RU) of fibril set to 10 (theoretical). In an association phase, the association time was set to 60 seconds and a flow rate was set to 60 μL/min. In a dissociation phase, the dissociation time was set to 180 seconds, and a flow rate was set to 60 μL/min. In a regeneration phase, the flow rate was set to 30 μL/min, and the regeneration time was set to 60 seconds. A 1:1 binding model was used for fitting, and the Biacore® T200 Evaluation software (GE Healthcare) was used for the evaluation.
A general note: Surface plasmon resonance follows binding to a sensor surface in real time, without labels.

For assay [4] the target is unchanged. The experiment in a line: sandwich ELISA, antibody coated, α-syn PFF added, 7B7-biotin detection. The method, then:
as §1
The source holds these as a separate data set.

The target is the same in assay [5]. The description is as above. The method, then: as §1
This is another data set of the same source.

Assay [6] has the same target. The experiment in a line: SPR Biacore T200, antibody captured on Protein A chip, α-syn PFF analyte, 1:1 model. The method, then: as §2
The source holds these as a separate data set.

Assay [7] has the same target. The experiment in a line: sandwich ELISA, antibody coated, α-syn PFF added, 7B7-biotin detection. The method, then: as §1
The source holds these as a separate data set.

For assay [8] the target is unchanged. Description: cell-based or functional assay.
Assay [9] has the same target. Description: SPR Biacore T200, antibody captured on Protein A chip, α-syn PFF analyte, 1:1 model. The method, then: as §2
The source holds these as a separate data set.

Assay [10] deals with human α-synuclein oligomers (Dopamine HCL Stabilized Human Recombinant Alpha Synuclein Oligomers, StressMarq … (human, UniProt P37840 1-140)). The experiment in a line: sandwich ELISA, antibody coated, oligomeric α-syn added, 7B7-biotin detection. The method, then: Human α-syn oligomers from StressMarq (Dopamine HCL Stabilized Human Recombinant Alpha Synuclein Oligomers, SPR-466) was used as the oligomeric α-syn in the assay.
In this sandwich ELISA, test antibodies were diluted with PBS by five-fold serial dilution from 80 nM to 0.005 nM. The serially diluted antibodies were added to a 96-well plate at 100 μL/well for coating. The plate was sealed and incubated at 4° C. for 16 hours. After washing with PBS-T five times, the plate was blocked with 5% BSA in PBS 200 μL/well at 37° C. for 2 hours. After washing with PBS-T five times, oligomeric α-syn (2 μg/mL, 100 μL/well in 2% BSA in PBS) was added and incubated at 37° C. for 2 hours. After washing with PBS-T five times, 7B7-biotin antibody (1 μg/mL, 100 μL/well, in 2% BSA in PBS) were added and incubated at 37° C. for 2 hours. After washing with PBS-T five times, the plate was incubated with Streptavidin-HRP in 2% BSA in PBS (1:5000, 1 mg/mL stock, 20 ng/well, 100 μL/well) at 37° C. for 1 hour. After washing with PBS-T five times, TMB (100 μL/well) was added and incubated at RT for 5 minutes. The reaction was stopped by the addition of 0.5 N H₂SO₄ (50 μL/well).

Substitutions are numbered along the chain they refer to. Read-outs that look alike come from different tables or passages of the source.

B1: chimeric 1E4 antibody (antibody, V domains shown)
VH: QVQLQQSGAELVRPGTSVKVSCKASGYAFTNYLIEWVKQRPGQGLEWIGVINPGSGGTNYNEKFKGKATLTADKSSSTAYMQLSSLTSDDSAVYFCASGNYDTYWGQGTLVTVSA
VL: DVVMTQTPLSLPVSLGDQASISCRSSQSLVHSNGNTYLHWYLQKPGQSPKLLIYKVSNRFSGVPDRFSGSGSGTDFTLKISRVEAEDLGVYFCSQSTHVPRTFGGGTKLEIK
notes: VH and VL of mouse 1E4 with human IgG1 and kappa constant regions; also called ch1E4; Ch1E4
For the molecule B1, the EC50 (commonly the concentration giving half of the maximal effect) turned out to be 876 pM in assay [1]; 209 pM in assay [2]; 554 pM in assay [4]; 484 pM in assay [5]; 1610 pM in [7]. Also, the Kd in assay [3] and in [6] was 51.9 pM throughout. Besides, the koff in assay [3] and in assay [6] was 0.00054 s⁻¹ in each case. For the same molecule, the kon in [3] and in assay [6] was 1.04e+07 M⁻¹ s⁻¹ in each case. Moreover, the “phagocytosis of α-syn PFF by BV-2 cells (gMFI, FACS)” value in assay [8] turned out to be 2 fold against ch9E4.

B2: hu1E4(V8_VL4) (antibody, human IgG1, V domains shown)
VH: QVQLVQSGAEVKKPGASVKVSCKASGYTFTNYLIEWVRQAPGQGLEWMGVINPGSGGTNYNEKFKGRVTMTADKSISTAYMELSRLRSDDTAVYYCASGNYDTYWGQGTLVTVSS
VL: B1 VL with T7S, S14T, D17Q, Q18P, L42Q, K44R, K50R, L88V, F92Y, L109V
notes: Monospecific; human IgG1 and kappa constant regions
In turn, B2 gave an EC50 in assay [2] of 139 pM. Also, in [3], binding was put at a Kd of 51 pM; the koff (commonly a measure of how fast the partners let go of each other) came to 0.000854 s⁻¹; the kon – broadly, the rate constant with which the complex forms – came to 1.68e+07 M⁻¹ s⁻¹.

B3: hu1E4(V1_VL1) (antibody, human IgG1, V domains shown)
VH: B2 VH with A72R, K74T
VL: B1 VL with V2I, P12S, S14T, L15P, D17Q, Q18P, K50Q, L88V, F92Y, G105Q
notes: Monospecific; fused to human IgG1 and kappa constant regions; also called humanized 1E4(V1_VL1); hu1E4(Ver.1_VL1)
B3 yielded a concentration for a half-maximal effect (EC50) in [1] of 619 pM. Also, in assay [3], the Kd (usually the free concentration of one partner at which half of the binding sites on the other are occupied at equilibrium, for simple one-to-one binding) is 27.6 pM; the koff turned out to be 0.000439 s⁻¹; the kon is 1.59e+07 M⁻¹ s⁻¹. In [9], the Kd stood at 30.2 pM, the koff is 0.000415 s⁻¹ and the kon was found to be 1.38e+07 M⁻¹ s⁻¹. For the same molecule, the EC50 in [7] came to 1100 pM. Further, in assay [10], the concentration giving a half-maximal response (EC50) stood at 3460 pM and the Saturation point came to 3.16.

B4: hu1E4(V9_VL4) (antibody, human IgG1, V domains shown)
VH: B2 VH with M48I, V68A, M70L
VL: B1 VL with T7S, S14T, D17Q, Q18P, L42Q, K44R, K50R, L88V, F92Y, L109V
notes: as for B2
Regarding B4, the EC50 in [2] came out at 114 pM. Also, in assay [3], the dissociation constant Kd is 96 pM, the koff amounted to 0.00137 s⁻¹ and the kon amounted to 1.42e+07 M⁻¹ s⁻¹.
